Data set [1] can be described thus: pNCA enzyme activity assay, substrate 15-pNCA. Type of data set: biochemical. On the procedure: (§1) For the pNCA activity assay use was made of 8 μl of a 10 mM pNCA solution in DMSO in a disposable cell in an end volume of 1 ml. After 850 μl of Tris/HCl buffer (0.1 M, pH 8.2) and 0.1 to 0.4 nmol P450 had been added to the pNCA/DMSO solution in question, the samples were preincubated for 5 minutes before the reaction was started by adding 50 μl of an aqueous solution of […]. To determine Kcat and Km, a concentration series was established for the various pNCA substrates (regarding details of the detection method, see (12)).
(§2) A 96-well plate (Greiner, Frickenhausen, Germany) was used for carrying out the pNCA test in a microtiter plate. In a total reaction volume of 250 μl in Tris/HCl buffer (0.1 M, pH 8.2), the reaction batch contained either 60 nmol 8-pNCA, 15 nmol 10-pNCA, 15 nmol 12-pNCA or 15 nmol 15-pNCA, in each case dissolved in 2.5 μl of DMSO. After the samples had been preincubated for 5 minutes with 40 μl of P450 BM-3 samples, the reaction was started by injecting, into each well, 30 μl of a 1 mM NADPH solution. Immediately after the NADPH solution had been added, the plates were measured in a plate reader at 405 nm.

Data set [2] in a line: pNCA enzyme activity assay, substrate 12-pNCA. Type of data set: biochemical. On the procedure: as §1, §2
Data set [3] can be described thus: pNCA enzyme activity assay, substrate 10-pNCA. It counts as biochemical. On the procedure: as §1, §2
The nature of data set [4]: pNCA enzyme activity assay, substrate 8-pNCA. It counts as biochemical. On the procedure:
as §1, §2

Data set [5] is described as follows: Hydroxylation of lauric acid with P450 BM-3 mutants, GC analysis of products. It counts as biochemical. On the procedure:
The following batch was chosen to hydroxylate the fatty acids in the presence of P450 BM-3 or its mutants:
Prior to the reaction, the enzyme lyophilisate was dissolved in 1 ml of reaction buffer and first incubated for 30 minutes at 36° C. Like the addition of 2% v/v acetone, the incubation leads to an increase in activity of 60 and 75%, respectively.
After 5 minutes' incubation, 500 μl of the previously prepared NADPH solution (12.5 mg/ml) were added. The course of the reaction is monitored by absorption measurements at 340 nm, and the consumption of NADPH can be observed. Theoretically 4 ml of NADPH solution would be required for a stoichiometric conversion, however, an unduly high NADPH concentration in the reaction solution results in inactivation of the enzyme, which is why the cofactor is added in 500 μl steps.
After the reaction had ended, the solution was acidified with 5M hydrochloric acid to a pH of 2. The fatty acids or hydroxylated fatty acids precipitate during this and result in a noticeable cloudiness of the solution. Thereafter, the mixture was extracted twice with in each case 10 ml of dichloromethane and dried over sodium sulfate. After filtration through a folded filter, the dichloromethane was removed on a rotary evaporator or by evaporation with nitrogen. The white solid which remained was taken up in 2 ml of dichloromethane and used in the GC analysis.
A Fisons gas chromatograph (Fisons Instruments Mega Series, Mainz, Germany) equipped with FID was used for the analysis (Optima 5-column, internal diameter 25 m×0.25 mm, Macherey & Nagel, Düren, Germany).
For analysis, starting materials and products were silylated with MSHFBA. During this, all hydroxyl and acid groups are converted into the corresponding trimethylsilyl ethers and esters, respectively. Care must be taken that the sample is anhydrous since otherwise side reactions with the silylating agent result. 15 μl of MSHFBA were pipetted into 10 μl of the hydroxy-fatty-acid-containing dichloromethane solution and the mixture was incubated for 15 minutes at room temperature. After 25 μl of dichloromethane had been added, the GC analysis was carried out.
To this end, 1 μl of the silylated samples were injected into the gas chromatograph. Injector and detector temperature were 350° C. The following temperature programmes were used:
To determine the reaction yields, gas chromatograms of standards were recorded. […] These ion fluxes are not proportional to the quantitative ratio of starting material and product. […] The empirical formulae of the standards and of the products are identical, and the structure only differs with regard to the position of the hydroxyl group, which is why approximately identical detectable ion fluxes can be assumed for identical quantities.

For data set [6] the following is noted: from reference (12); cited from earlier work.
For data set [7] the following is noted: from reference (1); cited from earlier work.

B1: WT: wild-type cytochrome P450 monooxygenase BM-3 from Bacillus megaterium, SEQ ID NO:2 (protein, listed as Bacillus megaterium)
chain: TIKEMPQPKTFGELKNLPLLNTDKPVQALMKIADELGEIFKFEAPGRVTRYLSSQRLIKEACDESRFDKNLSQALKFVRDFAGDGLFTSWTHEKNWKKAHNILLPSFSQQAMKGYHAMMVDIAVQLVQKWERLNADEHIEVPEDMTRLTLDTIGLCGFNYRFNSFYRDQPHPFITSMVRALDEAMNKLQRANPDDPAYDENKRQFQEDIKVMNDLVDKIIADRKASGEQSDDLLTHMLNGKDPETGEPLDDENIRYQIITFLIAGHETTSGLLSFALYFLVKNPHVLQKAAEEAARVLVDPVPSYKQVKQLKYVGMVLNEALRLWPTAPAFSLYAKEDTVLGGEYPLEKGDELMVLIPQLHRDKTIWGDDVEEFRPERFENPSAIPQHAFKPFGNGQRACIGQQFALHEATLVLGMMLKHFDFEDHTNYELDIKETLTLKPEGFVVKAKSKKIPLGGIPSPSTEQSAKKVRKKAENAHNTPLLVLYGSNMGTAEGTARDLADIAMSKGFAPQVATLDSHAGNLPREGAVLIVTASYNGHPPDNAKQFVDWLDQASADEVKGVRYSVFGCGDKNWATTYQKVPAFIDETLAAKGAENIADRGEADASDDFEGTYEEWREHMWSDVAAYFNLDIENSEDNKSTLSLQFVDSAADMPLAKMHGAFSTNVVASKELQQPGSARSTRHLEIELPKEASYQEGDHLGVIPRNYEGIVNRVTARFGLDASQQIRLEAEEEKLAHLPLAKTVSVEELLQYVELQDPVTRTQLRAMAAKTVCPPHKVELEALLEKQAYKEQVLAKRLTMLELLEKYPACEMKFSEFIALLPSIRPRYYSISSSPRVDEKQASITVSVVSGEAWSGYGEYKGIASNYLAELQEGDTITCFISTPQSEFTLPKDPETPLIMVGPGTGVAPFRGFVQARKQLKEQGQSLGEAHLYFGCRSPHEDYLYQEELENAQSEGIITLHTAFSRMPNQPKTYVQHVMEQDGKKLIELLDQGAHFYICGDGSQMAPAVEATLMKSYADVHQVSEADARLWLQQLEEKGRYAKDVWAG
For B1, the Specific activity in data set [1] was found to be 405 nmol/min/nmol P450; in data set [2], 141 nmol/min/nmol P450; in data set [3], 339 nmol/min/nmol P450; in data set [4] it was 15 nmol/min/nmol P450. The “positions in which the enzyme is active” value in data set [5] (lauric acid) was “only active in the positions w-1, w-2 and w-3”. Besides, the “Hydroxylation position ω-1, share of products” value in data set [5] (lauric acid (C12)) is listed as 38%. Also, the “Hydroxylation position ω-2, share of products” value in data set [5] (lauric acid (C12)) turned out to be 28%. Further, the “Hydroxylation position ω-3, share of products” value in data set [5] (lauric acid (C12)) is 34%. For the same molecule, the “conversion of 12-pNCA (ω-hydroxylation)” value in data set [6] is recorded as 33%. In data set [7], the “catalytic activity for fatty acids with a chain length of less than 12 carbon atoms” value is reported as “no catalytic activity”.

Source of the values: patent publication US7981652B2, “Modified cytochrome P450 monooxygenases” (BASF Aktiengesellschaft, priority 1999, dated 2011).
